Results taken from US8772451.

Assays:
[1] = molecular target: HLA-A2.1 presenting p53 (aa264-273) peptide, on T2 cells (human); experiment: quantitative flow cytometry on peptide-loaded T2 cells, PE anti-human IgG detection
[2] = molecular target: HLA-A2.1 presenting human p53 (aa 149-157) control peptide, on T2 cells (human); experiment: flow cytometry on peptide-loaded T2 cells, fusion protein at 125 pM, H57-PE detection
[3] = molecular target: HLA-A2.1 presenting p53 (aa264-273) peptide, on T2 cells (human); experiment: as above
[4] = molecular target: cognate MHC/peptide of the 264scTCR (HLA-A2.1/p53 aa 264-272), form in SPR not stated (human); experiment: surface plasmon resonance, physiological conditions

| fold increase in staining against 264scTCR/BirA tetramers [1] [fold] | mean channel fluorescence (MCF) [2] [MCF] | mean channel fluorescence (MCF) [3] [MCF] | Kd [4] [µM] | Substance |
| --- | --- | --- | --- | --- |
| 4 to 10 | 119 | 863 | – | 264scTCR/IgG1 fusion protein (from UniProt P01857 1-330) |
| – | – | – | 0.1 | 264scTCR |
| – | 13.4 | 95.1 | – | 264scTCR/BirA (monomeric, without biotinylation) |
| – | 10.9 | 55.3 | – | 264scTCR/trunIgG1 (from UniProt P01857 1-98) |
